Laboratory results reported in article PMC4749557, “ETO family protein Mtgr1 mediates Prdm14 functions in stem cell maintenance and primordial germ cell formation” (eLife, 2015).
Positions count from the first letter of the chain named. In names and notes the source's numbering stands.

T1: recombinant Prdm14 pre-SET+SET domains (residues 184–373) (mouse, UniProt E9Q3T6 184-373, biotin (biotin-acceptor tag))
T1 construct: gene assembled from synthetic oligonucleotides in the pHBT vector; a TEV site lies between the tags and the protein; also called mouse Prdm14; source: E. coli BL21 (DE3) with pBirACm and 50 μM biotin, purified (Ni-Sepharose); not shown: biotin-acceptor tag, N-terminal, kept
T1 sequence (looked up): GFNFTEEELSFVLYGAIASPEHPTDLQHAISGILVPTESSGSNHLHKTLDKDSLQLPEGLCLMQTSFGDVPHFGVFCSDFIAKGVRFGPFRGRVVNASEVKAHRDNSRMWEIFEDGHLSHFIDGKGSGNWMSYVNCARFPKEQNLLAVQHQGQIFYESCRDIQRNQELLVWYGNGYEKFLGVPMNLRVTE

T2: recombinant Prdm14 (residues 184–373) E294K (mouse, UniProt E9Q3T6 184-373, E294K, biotin (biotin-acceptor tag))
T2 construct: also called E294K Prdm14; source: E. coli BL21 (DE3) with pBirACm and 50 μM biotin, purified (Ni-Sepharose); not shown: biotin-acceptor tag, N-terminal, kept
T2 sequence (looked up): T1 sequence (looked up) with E111K

B1: human PRDM14 (residues 238–487) (domain or fragment, UniProt Q9GZV8 238-487, looked up)
chain: LPQTLDKDSLQLPEGLCLMQTVFGEVPHFGVFCSSFIAKGVRFGPFQGKVVNASEVKTYGDNSVMWEIFEDGHLSHFIDGKGGTGNWMSYVNCARFPKEQNLVAVQCQGHIFYESCKEIHQNQELLVWYGDCYEKFLDIPVSLQVTEPGKQPSGPSEESAEGYRCERCGKVFTYKYYRDKHLKYTPCVDKGDRKFPCSLCKRSFEKRDRLRIHILHVHEKHRPHKCSTCGKCFSQSSSLNKHMRVHSGDR
modifications: biotin (biotin-acceptor tag)
notes: vector based on p28BIOH-LIC; expression vector from the Structural Genomics Consortium; also called hPRDM14; source: E. coli BL21 (DE3) with pBirACm and 50 μM biotin, purified (Ni-Sepharose); not shown: biotin-acceptor tag, N-terminal, kept
B2: recombinant Mtgr1 NHR1 domain (residues 98–206) (domain or fragment, mouse, UniProt O70374 98-206, looked up)
chain: LPATCGARQLSKLKRFLTTLQQFGNDISPEIGEKVRTLVLALVNSTVTIEEFHCKLQEATNFPLRPFVIPFLKANLPLLQRELLHCARAAKQTPSQYLAQHEKLLLNTS
modifications: biotin (biotin-acceptor tag)
notes: Mtgr1 (Cbfa2t2), residues 98–206 (NHR1/TAFH domain), with H200K from a cloning artifact; pHBT vector; a TEV site lies between the tags and the protein; also called wt Mtgr1; source: E. coli BL21 (DE3) with pBirACm and 50 μM biotin, purified (Ni-Sepharose); not shown: biotin-acceptor tag, N-terminal, kept
B3: recombinant Mtgr1 NHR1 domain (residues 98–206) K109E (domain or fragment, mouse, UniProt O70374 98-206, looked up)
chain: B2 chain with K12E
modifications: biotin (biotin-acceptor tag)
notes: Mtgr1 (Cbfa2t2), residues 98–206, K109E on the pHBT construct that carries H200K; also called Mtgr1(K109E); source: E. coli BL21 (DE3) with pBirACm and 50 μM biotin, purified (Ni-Sepharose); not shown: biotin-acceptor tag, N-terminal, kept
B4: Mb(hPRDM14_S4) displayed on the yeast surface (designed binder)
chain: VSSVPTKLEVVAATPTSLLISWDAPAVTVDLYFITYGETGGNSPVQKFTVPGSKSTATISGLKPGVDYTITVYAQYYYRGWYVGSPISINYRT

How the values were obtained:
[1] = target: B4; experiment: yeast surface display; monobodies on the yeast surface with 50 nM of hPRDM14 or a homologue; conditions: one partner purified
[2] = target: T1, recombinant Prdm14 pre-SET+SET domains …; experiment: bead-based binding assay; biotinylated Prdm14 immobilised on streptavidin M280 beads, biotinylated Mtgr1 (NHR1) in solution, detected with SAV-Dylight650 by flow cytometer; 50 mM Tris–HCl, 150 mM NaCl, pH 8, 1 mg/ml BSA, 1 mM EDTA, 0.1 mM DTT; 1:1 model; conditions: both partners purified
[3] = target: T2, recombinant Prdm14 (residues 184–373) …; experiment: bead-based binding assay; biotinylated Mtgr1 (NHR1) immobilised on streptavidin M280 beads, biotinylated Prdm14 in solution, detected with SAV-Dylight650 by flow cytometer; 50 mM Tris–HCl, 150 mM NaCl, pH 8, 1 mg/ml BSA, 1 mM EDTA, 0.1 mM DTT; 1:1 model; conditions: both partners purified
[4] = target: B1; experiment: yeast surface display; KD of monobody clones displayed on yeast for hPRDM14; conditions: one partner purified

For B1, the “fold stronger binding than hPRDM6 and hPRDM12” value [1] was no less than 5 fold.

B2: binds [2].

B3: binds [3].

Binder B4 has a Kd [4] of less than 100 nM.
